Laboratory results as given in US20250197484A1 (ECO ANIMAL HEALTH, published 2025).
Read-outs that look alike come from different tables or passages of the source.

B1: Net_83 (VHH)
VHH: QVQLVESGGGLVQAGESLRLSCAASGSIRSISFMNWYRQQPGKQRELVAGINQIGNTNYAGSVKGRFTISRDNAKNTVYLQMNSLKPEDTAVYYCNVIVRGTVSPFQFWGQGTQVTVSS
B2: Net_14 (VHH)
VHH: QVQLVESGGGLVQAGGSVRLSCVASGLTFSGYSLGWFRQAPGKEREGVSYISSSGMITDYADSVKGRVTISRDDAKSTMYLQMNSLKPEDTAVYYCAARFPRPRSWLSTDSYNYWGQGAQVTVSS

Assays:
[1] = biological target: T1, Clostridium perfringens NetB toxin (necrotic enteritis B-like toxin) (Clostridium perfringens); assay: cell-based or functional assay
[2] = biological target: T1, Clostridium perfringens NetB toxin …; assay: cell-based or functional assay; remark: listed apart in the source
[3] = biological target: T1, Clostridium perfringens NetB toxin …; assay: SPR (Biacore 8K+), single cycle kinetics, NetB toxin immobilised, pH 7.4
[4] = biological target: T1, Clostridium perfringens NetB toxin …
[5] = biological target: T1, Clostridium perfringens NetB toxin …; remark: listed apart in the source

Row | Binder | IC50, inhibition of NetB-induced RBC lysis, 0 min incubation with 30 U/ml pepsin [1] | IC50 of NetB-induced RBC lysis inhibition after incubation in water, Day 0 [2] | IC50 of NetB-induced RBC lysis inhibition after incubation in water, Day 1 [2] | IC50 of NetB-induced RBC lysis inhibition after incubation in water, Day 4 [2] | Kd [3] | koff [3] | kon [3] | EC50 (read off the curve) [4] | EC50 (read off the curve) [5]
1 | B1 | 61 nM | 163 nM | 168 nM | 245 nM | 0.213 nM | 0.000248 s⁻¹ | 1.17e+06 M⁻¹ s⁻¹ | ~0.03 mg/L | –
2 | B2 | 23 nM | 44.2 nM | 53 nM | 51.1 nM | 0.095 nM | 6.32e-05 s⁻¹ | 668000 M⁻¹ s⁻¹ | – | ~0.02 mg/L
